These results are taken from the supplement of paper PMC12455559.

Data set [1] in a line: purified protein yield per well (BCA); higher = higher soluble expression. The method in brief: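 Purified protein yield per well is reported, as measured by the Pierce Rapid Gold BCA kit. The enzymes came from E. coli C41(DE3) autoinduction cultures of 2 mL with 100 µg/mL kanamycin, held at 37 °C for 2 h and 18 °C for 40 h, then lysed and purified on Ni-charged magnetic beads with SUMO protease release. The detection threshold is 25 ug (0.1 mg/mL), and lower values are under it.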

A short description of data set [2]: PET hydrolysis, aromatic products released after 48 h (umol product/mg enzyme); higher = more PET depolymerization activity. In short, it runs like this: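 Amorphous PET film or crystalline PET powder (3.5 mg) in 450 μL of 50 mM NaCitrate (pH 4.5, 5.5), 50 mM NaPhosphate (pH 6.5, 7.5) or glycine (pH 8.5) received 5 μg (50 μL) of candidate enzyme. That enzyme was purified on nickel beads and freed of its tag by SUMO cleavage. After 48 h at 40 or 60 °C in sealed plates without shaking, absorbance of the supernatant at 260 and 280 nm was read against buffer blanks. PET hydrolysis activity is this aromatic product expressed per mg enzyme.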

Data set [3] can be described thus: melting temperature (DSF); higher = more thermostable. In short, it runs like this:
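Values are melting temperatures from differential scanning fluorimetry. Candidate enzymes were expressed in E. coli C41(DE3), purified on nickel beads and freed by SUMO protease cleavage. In sealed PCR plates on a Bio-Rad CFX96, 45 μL enzyme (0 to 0.3 mg/mL) was combined with 5 μL 5X Sypro Orange. Fluorescence was recorded from 25 °C for 250 cycles, rising 0.3 °C per cycle at a ramp of 0.3 °C/s.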

The mark [4] stands for this setting: substrate: cryPow, 40 °C, pH 5.5.
[5] abbreviates: substrate: cryPow, 40 °C, pH 6.5.
[6] abbreviates: substrate: cryPow, 40 °C, pH 7.5.
Where [7] appears, read: substrate: cryPow, 40 °C, pH 8.5.
Where [8] appears, read: substrate: cryPow, 60 °C, pH 5.5.
[9] abbreviates: substrate: cryPow, 60 °C, pH 6.5.
Where [10] appears, read: substrate: cryPow, 60 °C, pH 7.5.
Setting [11] is: substrate: aFilm, 40 °C, pH 4.5.
The mark [12] stands for this setting: substrate: aFilm, 40 °C, pH 5.5.
Setting [13] is: substrate: aFilm, 40 °C, pH 6.5.
[14] abbreviates: substrate: aFilm, 40 °C, pH 7.5.
Where [15] appears, read: substrate: aFilm, 60 °C, pH 4.5.
[16] abbreviates: substrate: aFilm, 60 °C, pH 5.5.
[17] abbreviates: substrate: aFilm, 60 °C, pH 6.5.
Where [18] appears, read: substrate: aFilm, 60 °C, pH 7.5.
[19] abbreviates: substrate: cryPow, 40 °C, pH 4.5.
Where [20] appears, read: substrate: cryPow, 60 °C, pH 4.5.

± gives the standard deviation of the averaged measurements.

Take “ATTSYQRGPNPTEQSVRAANGPFAYSQFAIPDAEATGFGEGTIYYPNNTSVGTFGGVVIAPGFNADQNSTVWLGKRLASHGFVAVTITTHELNDQPYERGKQILAALDYLTGQSPAFVRSRLDPARLAAVGHSMGGGGTLFAAAQRPSLKAIVPLAPWALAKNWSNVQVPTMILSGAQDASAPPAEHAEKFYASLTSAPEKAYAKLDVNHVRFAWEHPLIGKLVVSWLKRFVDEDTRYTQFLCPTATGAVLLEYRATCPLG [DP026]”: the “purified protein yield per well” value in data set [1] turned out to be 164 µg. Besides, the PET hydrolysis in data set [2] (setting [4]) was 3; in data set [2] (setting [5]) it was below 3; in data set [2] (setting [6]), below 3; in data set [2] (setting [7]), below 3; in data set [2] (setting [8]), below 3; in data set [2] (setting [9]) it was below 3. The PET hydrolysis was below 3 in data set [2] (setting [10]) and below 3 in data set [2] (substrate: cryPow, 60 °C, pH 8.5). The melting temperature in data set [3] was 66.1 C.
Turning to “ATYERGPAPTAQSIVADGPFSYATVAVPTQSSFGGGTIYYPTDTNQGTFGAVAVIPGFVGSLDNVAWIGSRLASHGFVVFTVATTNPFAFPGDRAAQLQAALTYLTQSSSVRDRVDPNRLAVAGHSMGGGGALEAVRNNPALKAAVALQPWDFGQNFSAIAVPSMIVGAQNDQVATVTSHSEPFYDQIPAGAEKAYLELAGAGHDAGQSVSNATQAGSMLSWLKRYVDEDTRYEQFLCPAPSGPSVAEYRDTCPA [DP045]”, the “purified protein yield per well” value in data set [1] is 37 µg. The PET hydrolysis in data set [2] (setting [4]), in data set [2] (setting [5]), in data set [2] (setting [6]) and in data set [2] (setting [7]) was below 3 throughout. Moreover, in data set [3], the melting temperature came to 45.7 C.
For the sequence “AVHGPDPTDALLEASRGPYATAQIDVSALAVSGFGGGTIYYPTTTSEGTFGGVAIAPGYTADKSSLAWLAARLASHGFVVFNIDTLTRLDQPDSRGRQLLAALDYLTQRSSVRSRVDASRLGVMGHSMGGGGTLEAAVSRPSLRAAVPLTPWNLDKTWPEVRTPTLIIGADLDTIAPVLTHAEPFYASLPSTLDKAYLELNNATHFAPNITDTTIGKYAVAWMKRFIDDDTRYNRFLCPGPSWSLSVEEYRSTCPF [TEP061]”, the “purified protein yield per well” value in data set [1] came out at 299 µg. Also, the PET hydrolysis in data set [2] (setting [11]), in data set [2] (setting [12]), in data set [2] (setting [13]), in data set [2] (setting [14]), in data set [2] (setting [15]) and in data set [2] (setting [16]) was below 3 throughout. The PET hydrolysis in data set [2] (setting [17]) is below 3; in data set [2] (setting [18]), below 3; in data set [2] (setting [19]) it was below 3; in data set [2] (setting [4]), below 3; in data set [2] (setting [5]), below 3; in data set [2] (setting [6]) it was 2 ± 2.8. The PET hydrolysis in data set [2] (setting [20]), in data set [2] (setting [8]), in data set [2] (setting [9]) and in data set [2] (setting [10]) was below 3 in each case. This sequence also showed a melting temperature in data set [3] of 51.4 C.
Turning to “CVTPAPPPAPDVATVTVGAGNGFGGGTIYYPQGATGRLPVVAASPGFTENQNAVGWYGPLLAREGNIVITIDTNSPFDSPTSRADQLLAAIDYVVNRSSVASIADGSRTAVMGHSMGGGGSLEAALKRPGLKAIIPLAPWNTTTNFSGVRVPTLIVGCQNDAIAPVGSHAEPFYQSIPATTPKAYLEIAGGDHFCTNSENPTIANYVVAWTDRFLQGDTSASSRLCPPPPAGGSISEYRANCPY [ESM050]”, in data set [1], the “purified protein yield per well” value came to 236 µg. Besides, the PET hydrolysis in data set [2] (setting [11]) is below 3; in data set [2] (setting [12]), 5; in data set [2] (setting [13]), 15.5 ± 0.71; in data set [2] (setting [14]) it was 7.5 ± 0.71; in data set [2] (setting [15]) it was 5; in data set [2] (setting [16]) it was 22.5 ± 5. For the same sequence, the PET hydrolysis in data set [2] (setting [17]) amounted to 15 ± 1.4; in data set [2] (setting [18]) it was 10.5 ± 0.71; in data set [2] (setting [19]), 13.5 ± 0.71; in data set [2] (setting [4]), 50.5 ± 11; in data set [2] (setting [5]), 84.5 ± 6.4; in data set [2] (setting [6]), 134 ± 8.5. For the same sequence, the PET hydrolysis in data set [2] (setting [20]) worked out at 40 ± 1.4; in data set [2] (setting [8]), 106 ± 2.1; in data set [2] (setting [9]), 132 ± 11; in data set [2] (setting [10]), 140 ± 12. The sequence also came in with a melting temperature in data set [3] of 82.3 C.
As for “DDGYQRGPDPTEESIEAPRGTFEIGMAVVTRASADGFGGGTVYYPTDTSEGTFGAVAVSPGYSSSQAAIAWLGPRLASQGFVVFTIDTLSTSDSPTRRGDQVLAALSFLGRTELADRIDPDRLAVMGHSMGGGGSLEAAKDYPALQAIVPMTPWSVDKTFPEVTAPTLVIGAEDDVVARPRSHAEPIYESLPADGDKAYLELRDASHSAPSAPNTLIARYSLSWLKRYVDDDERYQQFLCPPPAVDDEISEYRSTCA [DP089]”, the “purified protein yield per well” value in data set [1] was below 25 µg. The PET hydrolysis in data set [2] (setting [4]) is below 3; in data set [2] (setting [5]), 4; in data set [2] (setting [6]) it was 19; in data set [2] (setting [7]), 20. In data set [3], this sequence registered a melting temperature of 52 C.
With “DEIGQAPTAGNITGNGSFTTTSESISSLVSGFGGGRVYYPTTAGKYPVVAISPGFTATWSSLSWIGPRLSSWGFVVVGIETNSIYDQPASRGSQLLAALNWAVNSSSSAVRARVDGSRRGVAGHSMGGGGTLEALAADTTGLVKAGVPIAPWNSDKTWNNVSEPVMIVGGQSDTVAPVASHSIPFYNTLAGPKGYVELTGASHFFPQSTNATLSRALVAWFKRWLNQDSRFTPYTCGFSGLAVSDFRSNAC [ESM090]”, the “purified protein yield per well” value in data set [1] stood at 116 µg. The PET hydrolysis in data set [2] (setting [19]) is below 3; in data set [2] (setting [4]), 27; in data set [2] (setting [5]), 46; in data set [2] (setting [6]), 65; in data set [2] (setting [20]) it was below 3; in data set [2] (setting [8]), 12. Moreover, the PET hydrolysis in data set [2] (setting [9]) was 35; in data set [2] (setting [10]), 51. Moreover, the melting temperature in data set [3] amounted to 68.5 C.
